Reference: patent US20220289816A1, “IMMUNOTHERAPY WITH B*07 RESTRICTED PEPTIDES AND COMBINATION OF PEPTIDES AGAINST CANCERS AND RELATED METHODS” (Immatics Biotechnologies GmbH, priority 2018, published 2022)

Tests used:
[1] = molecular target: HLA-B*07 (Homo sapiens, UniProt P01889); assay: MHC binding assay (UV-ligand exchange, ELISA of stabilized MHC complexes); details: peptide exchange yield on HLA-B*07, UV-ligand exchange
Outline: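 Binding is reported as exchange yield: an ELISA with HRP-conjugated anti-β2m (A450, TMB) quantified how much test peptide stabilized MHC after UV cleavage of a photolabile placeholder peptide. Exchange monomers were diluted 100-fold and captured on streptavidin-coated plates for 1 h at 37 °C.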

[2] = test system: CD8+ T cells; assay: In vitro immunogenicity: in vitro T-cell priming assay with aAPCs loaded with peptide/MHC complexes and anti-CD28 antibody, pMHC multimer readout; format: cell-based, human; details: Table 10b, pMHC multimer readout after priming of CD8+ T cells
Source text: In order to obtain information regarding the immunogenicity of the TUMAPs of the present invention, the inventors performed investigations using an in vitro T-cell priming assay based on repeated stimulations of CD8+ T cells with artificial antigen presenting cells (aAPCs) loaded with peptide/MHC complexes and anti-CD28 antibody.
In order to perform in vitro stimulations by artificial antigen presenting cells loaded with peptide-MHC complex (pMHC) and anti-CD28 antibody, the inventors first isolated CD8+ T cells from fresh HLA-B*07 leukapheresis products via positive selection using CD8 microbeads (Miltenyi Biotec, Bergisch-Gladbach, Germany) of healthy donors obtained from the University clinics Mannheim, Germany, after informed consent.
PBMCs and isolated CD8+ lymphocytes were incubated in T-cell medium (TCM) until use consisting of RPMI-Glutamax (Invitrogen, Karlsruhe, Germany) supplemented with 10% heat inactivated human AB serum (PAN-Biotech, Aidenbach, Germany), 100 U/ml Penicillin/100 μg/ml Streptomycin (Cambrex, Cologne, Germany), 1 mM sodium pyruvate (CC Pro, Oberdorla, Germany), 20 μg/ml Gentamycin (Cambrex). 2.5 ng/ml IL-7 (PromoCell, Heidelberg, Germany) and 10 U/ml IL-2 (Novartis Pharma, Nürnberg, Germany) were also added to the TCM at this step.
Generation of pMHC/anti-CD28 coated beads, T-cell stimulations and readout was performed in a highly defined in vitro system using four different pMHC molecules per stimulation condition and 8 different pMHC molecules per readout condition.
The purified co-stimulatory mouse IgG2a anti human CD28 Ab 9.3 (Jung et al., 1987) was chemically biotinylated using Sulfo-N-hydroxysuccinimidobiotin as recommended by the manufacturer (Perbio, Bonn, Germany). Beads used were 5.6 μm diameter streptavidin coated polystyrene particles (Bangs Laboratories, Illinois, USA).
800.000 beads/200 μl were coated in 96-well plates in the presence of 4×12.5 ng different biotin-pMHC, washed and 600 ng biotin anti-CD28 were added subsequently in a volume of 200 μl. Stimulations were initiated in 96-well plates by co-incubating 1×10^6 CD8+ T cells with 2×10^5 washed coated beads in 200 μl TCM supplemented with 5 ng/ml IL-12 (PromoCell) for 3 days at 37° C. Half of the medium was then exchanged by fresh TCM supplemented with 80 U/ml IL-2 and incubating was continued for four days at 37° C. This stimulation cycle was performed for a total of three times. For the pMHC multimer readout using 8 different pMHC molecules per condition, a two-dimensional combinatorial coding approach was used as previously described (Andersen et al., 2012) with minor modifications encompassing coupling to five different fluorochromes. Finally, multimeric analyses were performed by staining the cells with Live/dead near IR dye (Invitrogen, Karlsruhe, Germany), CD8-FITC antibody clone SK1 (BD, Heidelberg, Germany) and fluorescent pMHC multimers. For analysis, a BD LSRII SORP cytometer equipped with appropriate lasers and filters was used. Peptide specific cells were calculated as percentage of total CD8+ cells. Evaluation of multimeric analysis was done using the FlowJo software (Tree Star, Oregon, USA). In vitro priming of specific multimer+CD8+ lymphocytes was detected by comparing to negative control stimulations.

Row | Substance | Peptide exchange [1] | Wells positive [%] [2]
1 | 361 (SPYGSDRLVQL; listed as Homo sapiens) [compound 361] | ++++ (>75% = ++++) | + (<20% = +)
2 | 364 (KPRTPFTTAQL; listed as Homo sapiens) [compound 364] | ++++ (>75% = ++++) | + (<20% = +)
3 | 365 (RPKHFLQML; listed as Homo sapiens) [compound 365] | ++++ (>75% = ++++) | + (<20% = +)
4 | 366 (SPTLRQLDL; listed as Homo sapiens) [compound 366] | ++++ (>75% = ++++) | ++ (20%-49% = ++)
